Experimental data reported in PMC3549490.
Values joined by “and” are separate entries in the source; they are usually repeats but may differ in a detail not shown here. Equal entries are not always repeated.

Legend:
[1] = target: UNC-45 (C. elegans), full-length recombinant protein (C. elegans); experiment: ITC
[2] = target: UNC-45 Q452pBpa (wild-type Q452B) (C. elegans); experiment: cross-linking

| Substance | Kd [1] [µM] | stoichiometry N [2] |
| --- | --- | --- |
| Hsp90 (DAF-21 in C. elegans), full-length recombinant protein (from UniProt Q18688 1-702) (natural protein) | 31 |  |
| UNC-45 Q452pBpa (wild-type Q452B) (natural protein) |  | 2 and > 5 |
